Publication PMC4671958, “Structure of the Helicase Domain of DNA Polymerase Theta Reveals a Possible Role in the Microhomology-Mediated End-Joining Pathway”

Biological target: Polθ-HLD (DNA polymerase theta helicase domain) (Homo sapiens, UniProt O75417 67-894)
Assay: fluorescence polarization; low salt, 50 mM NaCl; stated as single digit nM; 10 mM HEPES pH 7.5, 150 mM NaCl (low salt: 50 mM NaCl), 10 nM probe; temperature not stated in material
Settings: protein: recombinant; tags: His6 tag cleaved with TEV; chain copies: 4; label: 5' fluorescein (FITC); single strand

Polθ-HLD (DNA polymerase theta helicase domain), sequence (O75417 67-894): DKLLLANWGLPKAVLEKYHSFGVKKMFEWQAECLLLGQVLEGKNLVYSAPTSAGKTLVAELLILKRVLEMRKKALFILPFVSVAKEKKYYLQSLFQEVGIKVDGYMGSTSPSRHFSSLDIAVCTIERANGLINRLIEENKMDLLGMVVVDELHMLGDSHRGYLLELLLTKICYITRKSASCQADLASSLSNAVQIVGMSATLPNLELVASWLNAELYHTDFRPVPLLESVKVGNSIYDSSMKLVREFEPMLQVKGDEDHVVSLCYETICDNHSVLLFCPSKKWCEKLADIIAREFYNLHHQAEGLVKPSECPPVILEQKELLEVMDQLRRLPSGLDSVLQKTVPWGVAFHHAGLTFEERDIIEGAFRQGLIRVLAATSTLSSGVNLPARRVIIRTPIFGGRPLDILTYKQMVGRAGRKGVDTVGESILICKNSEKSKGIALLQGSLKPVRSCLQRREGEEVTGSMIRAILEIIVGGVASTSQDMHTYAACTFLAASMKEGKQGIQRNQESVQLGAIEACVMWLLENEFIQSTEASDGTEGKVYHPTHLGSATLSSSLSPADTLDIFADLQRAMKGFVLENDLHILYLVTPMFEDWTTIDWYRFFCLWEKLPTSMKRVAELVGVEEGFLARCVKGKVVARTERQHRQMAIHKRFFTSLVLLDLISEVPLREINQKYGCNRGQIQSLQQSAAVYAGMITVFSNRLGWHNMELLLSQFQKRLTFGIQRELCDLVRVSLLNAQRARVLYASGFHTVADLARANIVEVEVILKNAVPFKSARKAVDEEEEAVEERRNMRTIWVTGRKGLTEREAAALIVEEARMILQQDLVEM

B1: Single stranded (POLQ-1) (ssDNA)
DNA: ATCGATAGTCGGATCCTCTAGACAGCTCCATGTAGCAAGGCACTGGTAGAATTCGGCAGCGTC
  Kd: < 10 nM
